B1: Receptor protein kinase CLAVATA1 (Arabidopsis thaliana (Mouse-ear cress)), Q9SYQ8 (parent)
chain: MAMRLLKTHLLFLHLYLFFSPCFAYTDMEVLLNLKSSMIGPKGHGLHDWIHSSSPDAHCSFSGVSCDDDARVISLNVSFTPLFGTISPEIGMLTHLVNLTLAANNFTGELPLEMKSLTSLKVLNISNNGNLTGTFPGEILKAMVDLEVLDTYNNNFNGKLPPEMSELKKLKYLSFGGNFFSGEIPESYGDIQSLEYLGLNGAGLSGKSPAFLSRLKNLREMYIGYYNSYTGGVPPEFGGLTKLEILDMASCTLTGEIPTSLSNLKHLHTLFLHINNLTGHIPPELSGLVSLKSLDLSINQLTGEIPQSFINLGNITLINLFRNNLYGQIPEAIGELPKLEVFEVWENNFTLQLPANLGRNGNLIKLDVSDNHLTGLIPKDLCRGEKLEMLILSNNFFFGPIPEELGKCKSLTKIRIVKNLLNGTVPAGLFNLPLVTIIELTDNFFSGELPVTMSGDVLDQIYLSNNWFSGEIPPAIGNFPNLQTLFLDRNRFRGNIPREIFELKHLSRINTSANNITGGIPDSISRCSTLISVDLSRNRINGEIPKGINNVKNLGTLNISGNQLTGSIPTGIGNMTSLTTLDLSFNDLSGRVPLGGQFLVFNETSFAGNTYLCLPHRVSCPTRPGQTSDHNHTALFSPSRIVITVIAAITGLILISVAIRQMNKKKNQKSLAWKLTAFQKLDFKSEDVLECLKEENIIGKGGAGIVYRGSMPNNVDVAIKRLVGRGTGRSDHGFTAEIQTLGRIRHRHIVRLLGYVANKDTNLLLYEYMPNGSLGELLHGSKGGHLQWETRHRVAVEAAKGLCYLHHDCSPLILHRDVKSNNILLDSDFEAHVADFGLAKFLVDGAASECMSSIAGSYGYIAPEYAYTLKVDEKSDVYSFGVVLLELIAGKKPVGEFGEGVDIVRWVRNTEEEITQPSDAAIVVAIVDPRLTGYPLTSVIHVFKIAMMCVEEEAAARPTMREVVHMLTNPPKSVANLIAF
partner: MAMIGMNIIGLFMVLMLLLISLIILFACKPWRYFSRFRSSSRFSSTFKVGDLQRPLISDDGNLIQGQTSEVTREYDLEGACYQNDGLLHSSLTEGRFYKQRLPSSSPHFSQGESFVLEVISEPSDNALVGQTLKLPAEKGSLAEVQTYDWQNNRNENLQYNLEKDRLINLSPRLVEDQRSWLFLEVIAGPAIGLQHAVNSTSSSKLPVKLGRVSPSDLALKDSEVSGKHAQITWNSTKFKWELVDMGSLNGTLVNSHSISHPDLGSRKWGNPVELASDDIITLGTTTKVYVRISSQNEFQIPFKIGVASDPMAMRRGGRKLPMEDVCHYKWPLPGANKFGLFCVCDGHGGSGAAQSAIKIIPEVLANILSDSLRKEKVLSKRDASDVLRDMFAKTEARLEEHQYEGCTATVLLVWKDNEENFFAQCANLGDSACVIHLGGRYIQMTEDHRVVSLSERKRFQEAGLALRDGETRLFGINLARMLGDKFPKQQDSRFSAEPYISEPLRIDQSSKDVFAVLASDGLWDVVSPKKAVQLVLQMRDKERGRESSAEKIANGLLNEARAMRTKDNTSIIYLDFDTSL

Variants of: B1
Settings: with KAPP

effect of a mutation on the interaction | Variant
disrupting interaction | K720E
disrupting interaction | G856D

Variants of: B1
Settings: with KAPP
Remark: another data set of the same source

effect of a mutation on the interaction | Variant
decreasing interaction | G856D

From IntAct's records for PubMed 9294234
